Experimental data published in patent publication US7608683B2, “Stress proteins and peptides and methods of use thereof” (The Regents of the University of California, priority 2000, dated 2009).

Tested on: PBMC of subjects with JIA
Assay: T cell proliferation assay, PBMC of subjects with JIA
Assay type: cell-based, human
Conditions: majority of JIA subjects; SI of 2 or higher positive

B1: whole human hsp60: whole human hsp60 protein (protein)
chain: MLRLPTVFRQMRPVSRVLAPHLTRAYAKDVKFGADARALMLQGVDLLADAVAVTMGPKGRTVIIEQGWGSPKVTKDGVTVAKSIDLKDKYKNIGAKLVQDVANNTNEEAGDGTTTATVLARSIAKEGFEKISKGANPVEIRRGVMLAVDAVIAELKKQSKPVTTPEEIAQVATISANGDKEIGNIISDAMKKVGRKGVITVKDGKTLNDELEIIEGMKFDRGYISPYFINTSKGQKCEFQDAYVLLSEKKISSIQSIVPALEIANAHRKPLVIIAEDVDGEALSTLVLNRLKVGLQVVAVKAPGFGDNRKNQLKDMAIATGGAVFGEEGLTLNLEDVQPHDLGKVGEVIVTKDDAMLLKGKGDKAQIEKRIQEIIEQLDVTTSEYEKEKLNERLAKLSDGVAVLKVGGTSDVEVNEKKDRVTDALNATRAAVEEGIVLGGGCALLRCIPALDSLTPANEDQKIGIEIIKRTLKIPAMTIAKNAGVEGSLIVEKIMQSSSEVGYDAMAGDFVNMVEKGIIDPTKVVTALLDAAGVASLLTTAEVVVTEIPKEEKDPGMGAMGGMGGGMGGGMF
modifications: Homo sapiens hsp60
notes: whole human hsp60 protein
- T cell proliferative response to whole hsp60: positive T cell proliferative response
